Test results taken from patent US20200216532A1 (Ablynx, published 2020).
Where a chain is given by its changes, count along the chain named. Numbers in names are those of the source.

B1: SEQ ID NO: 73 (VHH)
VHH: EVQLVESGGGLVQPGGSLRLSCAASRSIGRLDRMGWYRHRPGEPRELVATITGGSSINYGDSVKGRFTISIDNSKNTVYLQMNSLRPEDTAVYYCNFNKYVTSRDTWGQGTLVTVGG
notes: Ex. 8; S112G, S113G
B2: SEQ ID NO: 77 (VHH)
VHH: B1 VHH with G116S, G117S
notes: Ex. 8
B3: SEQ ID NO: 88 (VHH)
VHH: B1 VHH with L11S, T114Q, G116S, G117S
notes: Ex. 8; L11S, T110Q
B4: SEQ ID NO: 75 (VHH)
VHH: B1 VHH with G116S, G117S
notes: Ex. 8
B5: SEQ ID NO: 76 (VHH)
VHH: B1 VHH with G116S, G117S
notes: Ex. 8
B6: SEQ ID NO: 79 (VHH)
VHH: B1 VHH with G116S, G117S
notes: Ex. 8

These binders were tested against T1, purified interference factor(s), Donor A (assay: SPR, interference factor immobilized).
T1 construct: also called interference in serum from Donor A
For B1, the “% of binding of reference (=100%)” value was 6%.
With B2 the “% of binding of reference (=100%)” value was 2%.
In the case of B3, the “% of binding of reference (=100%)” value is reported as 1%.
B4 was tested, and the “% of binding of reference (=100%)” value was 1%.
B5 was tested, and the “% of binding of reference (=100%)” value was 2%.
In the case of B6, the “% of binding of reference (=100%)” value is reported as 1%.

The binders below were run against T2, purified interference factor(s), Donor B (assay: SPR, interference factor immobilized).
T2 construct: also called interference in serum from Donor B
With B1 the “% of binding of reference (=100%)” value was 8%.
In the case of B2, the “% of binding of reference (=100%)” value is reported as 12%.
In the case of B3, the “% of binding of reference (=100%)” value is reported as 5%.
In the case of B4, the “% of binding of reference (=100%)” value is reported as 11%.
For B5, the “% of binding of reference (=100%)” value was 17%.
For B6, the “% of binding of reference (=100%)” value was 17%.

The binders below were run against T3, purified interference factor(s), Donor C (assay: SPR, interference factor immobilized).
T3 construct: also called interference in serum from Donor C
For B1, the “% of binding of reference (=100%)” value was 9%.
For B2, the “% of binding of reference (=100%)” value was 13%.
In the case of B3, the “% of binding of reference (=100%)” value is reported as 11%.
In the case of B4, the “% of binding of reference (=100%)” value is reported as 16%.
In the case of B5, the “% of binding of reference (=100%)” value is reported as 20%.
With B6 the “% of binding of reference (=100%)” value was 13%.
